Reference: patent publication US20230242902A1, “A HIGHLY ERROR-PRONE […] R[…] FOR TARGETED CONTINUOUS EVOLUTION IN VIVO” (The Regents of the University of California, priority 2017, published 2023)

What follows are molecules tested on p1 (assay: p1 copy number by p1-encoded mKate2 fluorescence). Details: OR-Y24, measured in triplicate.
Format: cell-based, S. cerevisiae
Summary of the method: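 Copy number was inferred from p1-encoded mKate2 fluorescence in saturated OR-Y24 cultures (triplicate), calibrated linearly against qPCR of p1 leu2 relative to genomic LEU3.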

Molecule | Mean fold-increase over w.t. (p1 copy number) [fold]
T303L: TP-DNAP1 variant (protein) MDYKDKALNDLRNVYADFDSLPLDFRQILIKDRATLLQKEDVEKKILERQEDAKKYAEYLKQSEIPERISLPNIKRHKGVSISFEETSEDMVLEPRPFIFDGLNIRCFRRETIFSLKNKILNMVKESSSFKNVSRQSVSFMYFKIFNKGKVIASTKSVNIYEDKIDERLEDLCNNFDDVLKKIIDVTYGYESLFVSETYSYVIFYAKSIYFPQPRCVNNWGNNIPNILTFDSFKLFTANKNNVSCIKQCSRFLWQKDFNTLEEMIEYKNGNICIVTPQLHINDVRDIKSFNDIRLYSESPIKLFSVIDNTITYLFYFKEHLGVIFNITKSRHDRRVTKFSPLSKFSDVKNITVCFDIESYFDPEKESNQVNIPFICCASIIYNKVIGNIVDFEGRDCVAQMIEYVVDICGELNISSVELIAHNGGGYDFHYILSSMYNPAAIKNILIRNNSFISFNFAHDGVKFSVKDSYSFLLCSLANASKAFLNEETFKKTDFPHHDLKTADDLYKVYKEWSSVNTEINHVVEKEKLLITSEHIVNFTKNDKSKTLIEWSKDYCRNDVLVLSKVWLEFKNAVEDIFNCELVDQTMTLAGLSYKLFQANMPFDVELRHPNKEDYFNMREALIGGRCISVNGIYKDVLCLDVKSLYPASMAFYDQPYGSFKRVSSRPKDELGIYYVRVTPNRNNKSNFFPIRSHNKITYNNFEESTYIAWYTNVDIDIGLSEGHNIEYIPFDSYGNIGYSWSKKGKIFEKYIKDVLYKLKIKYEKQNNKVKRNVIKIIMNSLWGKFAQKWVNFEYFIKSEDDIDFESEEAYKIWDTDFMLIKKIKESTYSSKPIQNGVFTLSWARYHMKSIWDAGAKEGAECIYSDTDSIFVHKEHFKKNAKFMLNGLKVPIIGSEVGQLELECEFDKLLCAGKKQYMGFYTYFQDGKPCIKEKKRFKGIPSNYIIPELYAHLLSGADKEAKIQFLKFRREWGSVKGYIENKTVKAT | 2.41
T303W: TP-DNAP1 variant (protein) MDYKDKALNDLRNVYADFDSLPLDFRQILIKDRATLLQKEDVEKKILERQEDAKKYAEYLKQSEIPERISLPNIKRHKGVSISFEETSEDMVLEPRPFIFDGLNIRCFRRETIFSLKNKILNMVKESSSFKNVSRQSVSFMYFKIFNKGKVIASTKSVNIYEDKIDERLEDLCNNFDDVLKKIIDVTYGYESLFVSETYSYVIFYAKSIYFPQPRCVNNWGNNIPNILTFDSFKLFTANKNNVSCIKQCSRFLWQKDFNTLEEMIEYKNGNICIVTPQLHINDVRDIKSFNDIRLYSESPIKWFSVIDNTITYLFYFKEHLGVIFNITKSRHDRRVTKFSPLSKFSDVKNITVCFDIESYFDPEKESNQVNIPFICCASIIYNKVIGNIVDFEGRDCVAQMIEYVVDICGELNISSVELIAHNGGGYDFHYILSSMYNPAAIKNILIRNNSFISFNFAHDGVKFSVKDSYSFLLCSLANASKAFLNEETFKKTDFPHHDLKTADDLYKVYKEWSSVNTEINHVVEKEKLLITSEHIVNFTKNDKSKTLIEWSKDYCRNDVLVLSKVWLEFKNAVEDIFNCELVDQTMTLAGLSYKLFQANMPFDVELRHPNKEDYFNMREALIGGRCISVNGIYKDVLCLDVKSLYPASMAFYDQPYGSFKRVSSRPKDELGIYYVRVTPNRNNKSNFFPIRSHNKITYNNFEESTYIAWYTNVDIDIGLSEGHNIEYIPFDSYGNIGYSWSKKGKIFEKYIKDVLYKLKIKYEKQNNKVKRNVIKIIMNSLWGKFAQKWVNFEYFIKSEDDIDFESEEAYKIWDTDFMLIKKIKESTYSSKPIQNGVFTLSWARYHMKSIWDAGAKEGAECIYSDTDSIFVHKEHFKKNAKFMLNGLKVPIIGSEVGQLELECEFDKLLCAGKKQYMGFYTYFQDGKPCIKEKKRFKGIPSNYIIPELYAHLLSGADKEAKIQFLKFRREWGSVKGYIENKTVKAT | 2.96
F304A: TP-DNAP1 variant (protein) MDYKDKALNDLRNVYADFDSLPLDFRQILIKDRATLLQKEDVEKKILERQEDAKKYAEYLKQSEIPERISLPNIKRHKGVSISFEETSEDMVLEPRPFIFDGLNIRCFRRETIFSLKNKILNMVKESSSFKNVSRQSVSFMYFKIFNKGKVIASTKSVNIYEDKIDERLEDLCNNFDDVLKKIIDVTYGYESLFVSETYSYVIFYAKSIYFPQPRCVNNWGNNIPNILTFDSFKLFTANKNNVSCIKQCSRFLWQKDFNTLEEMIEYKNGNICIVTPQLHINDVRDIKSFNDIRLYSESPIKTASVIDNTITYLFYFKEHLGVIFNITKSRHDRRVTKFSPLSKFSDVKNITVCFDIESYFDPEKESNQVNIPFICCASIIYNKVIGNIVDFEGRDCVAQMIEYVVDICGELNISSVELIAHNGGGYDFHYILSSMYNPAAIKNILIRNNSFISFNFAHDGVKFSVKDSYSFLLCSLANASKAFLNEETFKKTDFPHHDLKTADDLYKVYKEWSSVNTEINHVVEKEKLLITSEHIVNFTKNDKSKTLIEWSKDYCRNDVLVLSKVWLEFKNAVEDIFNCELVDQTMTLAGLSYKLFQANMPFDVELRHPNKEDYFNMREALIGGRCISVNGIYKDVLCLDVKSLYPASMAFYDQPYGSFKRVSSRPKDELGIYYVRVTPNRNNKSNFFPIRSHNKITYNNFEESTYIAWYTNVDIDIGLSEGHNIEYIPFDSYGNIGYSWSKKGKIFEKYIKDVLYKLKIKYEKQNNKVKRNVIKIIMNSLWGKFAQKWVNFEYFIKSEDDIDFESEEAYKIWDTDFMLIKKIKESTYSSKPIQNGVFTLSWARYHMKSIWDAGAKEGAECIYSDTDSIFVHKEHFKKNAKFMLNGLKVPIIGSEVGQLELECEFDKLLCAGKKQYMGFYTYFQDGKPCIKEKKRFKGIPSNYIIPELYAHLLSGADKEAKIQFLKFRREWGSVKGYIENKTVKAT | 2.14
T303M: TP-DNAP1 variant (protein) MDYKDKALNDLRNVYADFDSLPLDFRQILIKDRATLLQKEDVEKKILERQEDAKKYAEYLKQSEIPERISLPNIKRHKGVSISFEETSEDMVLEPRPFIFDGLNIRCFRRETIFSLKNKILNMVKESSSFKNVSRQSVSFMYFKIFNKGKVIASTKSVNIYEDKIDERLEDLCNNFDDVLKKIIDVTYGYESLFVSETYSYVIFYAKSIYFPQPRCVNNWGNNIPNILTFDSFKLFTANKNNVSCIKQCSRFLWQKDFNTLEEMIEYKNGNICIVTPQLHINDVRDIKSFNDIRLYSESPIKMFSVIDNTITYLFYFKEHLGVIFNITKSRHDRRVTKFSPLSKFSDVKNITVCFDIESYFDPEKESNQVNIPFICCASIIYNKVIGNIVDFEGRDCVAQMIEYVVDICGELNISSVELIAHNGGGYDFHYILSSMYNPAAIKNILIRNNSFISFNFAHDGVKFSVKDSYSFLLCSLANASKAFLNEETFKKTDFPHHDLKTADDLYKVYKEWSSVNTEINHVVEKEKLLITSEHIVNFTKNDKSKTLIEWSKDYCRNDVLVLSKVWLEFKNAVEDIFNCELVDQTMTLAGLSYKLFQANMPFDVELRHPNKEDYFNMREALIGGRCISVNGIYKDVLCLDVKSLYPASMAFYDQPYGSFKRVSSRPKDELGIYYVRVTPNRNNKSNFFPIRSHNKITYNNFEESTYIAWYTNVDIDIGLSEGHNIEYIPFDSYGNIGYSWSKKGKIFEKYIKDVLYKLKIKYEKQNNKVKRNVIKIIMNSLWGKFAQKWVNFEYFIKSEDDIDFESEEAYKIWDTDFMLIKKIKESTYSSKPIQNGVFTLSWARYHMKSIWDAGAKEGAECIYSDTDSIFVHKEHFKKNAKFMLNGLKVPIIGSEVGQLELECEFDKLLCAGKKQYMGFYTYFQDGKPCIKEKKRFKGIPSNYIIPELYAHLLSGADKEAKIQFLKFRREWGSVKGYIENKTVKAT | 2.5
